B1: SH2 domain-containing protein 1A, O60880 (parent)
chain: MDAVAVYHGKISRETGEKLLLATGLDGSYLLRDSESVPGVYCLCVLYHGYIYTYRVSQTETGSWSAETAPGVHKRYFRKIKNLISAFQKPDQGIVIPLQYPVEKKSSARSTQGTTGIREDPDVCLKAP

In the series the parent is B1. The settings on record: Homo sapiens; pH 7.4; Thermal; CD; Phosphate buffer saline; structure 1KA6; whole UniProt chain shown.

Regarding L31P, the Tm amounted to 45.6 °C and the “change of melting temperature, mutant - wild type (higher = more stable)” value was -12.2 °C.
Turning to E67D, the Tm was determined as 44.2 °C and the “change of melting temperature, mutant - wild type (higher = more stable)” value was -13.6 °C.
On the same counts, the results for Y54C are 48.2 °C and -9.6 °C.
On the same counts, the results for G93D are 49.1 °C and -8.7 °C.
On the same counts, the results for F87S are 50.5 °C and -7.3 °C.

What is called Tm is the temperature at the midpoint of the melting transition.

Values taken from FireProtDB (doi:10.1021/bi034798l).
